Reference: patent US20150087577A1 (POLYPHOR, published 2015)
Bridges are numbered along the chain shown (N, C = ends). [ ]: non-standard residue; d: D form. 2Nal = N[C@@H](Cc1ccc2ccccc2c1)C(=O)O; Cit = NC(=O)NCCC[C@H](N)C(=O)O

B1: Example 85 (peptide)
peptide: cyclo(YR[Cit]CRG[dP]RR[2Nal]CYQD[dP]P)
modifications: disulfide 4-11
SMILES: N=C(N)NCCC[C@@H]1NC(=O)[C@@H]2CSSC[C@H](NC(=O)[C@H](Cc3ccc4ccccc4c3)NC(=O)[C@H](CCCNC(=N)N)NC(=O)[C@H](CCCNC(=N)N)NC(=O)[C@H]3CCCN3C(=O)CNC1=O)C(=O)N[C@@H](Cc1ccc(O)cc1)C(=O)N[C@@H](CCC(N)=O)C(=O)N[C@@H](CC(=O)O)C(=O)N1CCC[C@@H]1C(=O)N1CCC[C@H]1C(=O)N[C@@H](Cc1ccc(O)cc1)C(=O)N[C@@H](CCCNC(=N)N)C(=O)N[C@@H](CCCNC(N)=O)C(=O)N2
B2: Example 86 (peptide)
peptide: cyclo(YR[Cit]CRG[dP]RR[2Nal]CYQA[dP]P)
modifications: disulfide 4-11
SMILES: C[C@@H]1NC(=O)[C@H](CCC(N)=O)NC(=O)[C@H](Cc2ccc(O)cc2)NC(=O)[C@@H]2CSSC[C@H](NC(=O)[C@H](CCCNC(N)=O)NC(=O)[C@H](CCCNC(=N)N)NC(=O)[C@H](Cc3ccc(O)cc3)NC(=O)[C@@H]3CCCN3C(=O)[C@H]3CCCN3C1=O)C(=O)N[C@@H](CCCNC(=N)N)C(=O)NCC(=O)N1CCC[C@@H]1C(=O)N[C@@H](CCCNC(=N)N)C(=O)N[C@@H](CCCNC(=N)N)C(=O)N[C@@H](Cc1ccc3ccccc3c1)C(=O)N2
B3: Example 87 (peptide)
peptide: cyclo(YR[Cit]CRG[dP]RR[2Nal]CYQS[dP]P)
modifications: disulfide 4-11
SMILES: N=C(N)NCCC[C@@H]1NC(=O)[C@@H]2CSSC[C@H](NC(=O)[C@H](Cc3ccc4ccccc4c3)NC(=O)[C@H](CCCNC(=N)N)NC(=O)[C@H](CCCNC(=N)N)NC(=O)[C@H]3CCCN3C(=O)CNC1=O)C(=O)N[C@@H](Cc1ccc(O)cc1)C(=O)N[C@@H](CCC(N)=O)C(=O)N[C@@H](CO)C(=O)N1CCC[C@@H]1C(=O)N1CCC[C@H]1C(=O)N[C@@H](Cc1ccc(O)cc1)C(=O)N[C@@H](CCCNC(=N)N)C(=O)N[C@@H](CCCNC(N)=O)C(=O)N2
B4: Example 88 (peptide)
peptide: cyclo(DR[Cit]CRG[dP]RR[2Nal]CYQK[dP]P)
modifications: disulfide 4-11
SMILES: N=C(N)NCCC[C@@H]1NC(=O)[C@@H]2CSSC[C@H](NC(=O)[C@H](Cc3ccc4ccccc4c3)NC(=O)[C@H](CCCNC(=N)N)NC(=O)[C@H](CCCNC(=N)N)NC(=O)[C@H]3CCCN3C(=O)CNC1=O)C(=O)N[C@@H](Cc1ccc(O)cc1)C(=O)N[C@@H](CCC(N)=O)C(=O)N[C@@H](CCCCN)C(=O)N1CCC[C@@H]1C(=O)N1CCC[C@H]1C(=O)N[C@@H](CC(=O)O)C(=O)N[C@@H](CCCNC(=N)N)C(=O)N[C@@H](CCCNC(N)=O)C(=O)N2
B5: Example 89 (peptide)
peptide: cyclo(SR[Cit]CRG[dP]RR[2Nal]CYQK[dP]P)
modifications: disulfide 4-11
SMILES: N=C(N)NCCC[C@@H]1NC(=O)[C@@H]2CSSC[C@H](NC(=O)[C@H](Cc3ccc4ccccc4c3)NC(=O)[C@H](CCCNC(=N)N)NC(=O)[C@H](CCCNC(=N)N)NC(=O)[C@H]3CCCN3C(=O)CNC1=O)C(=O)N[C@@H](Cc1ccc(O)cc1)C(=O)N[C@@H](CCC(N)=O)C(=O)N[C@@H](CCCCN)C(=O)N1CCC[C@@H]1C(=O)N1CCC[C@H]1C(=O)N[C@@H](CO)C(=O)N[C@@H](CCCNC(=N)N)C(=O)N[C@@H](CCCNC(N)=O)C(=O)N2
B6: Example 90 (peptide)
peptide: cyclo(VR[Cit]CRG[dP]RR[2Nal]CYQK[dP]P)
modifications: disulfide 4-11
SMILES: CC(C)[C@@H]1NC(=O)[C@@H]2CCCN2C(=O)[C@H]2CCCN2C(=O)[C@H](CCCCN)NC(=O)[C@H](CCC(N)=O)NC(=O)[C@H](Cc2ccc(O)cc2)NC(=O)[C@@H]2CSSC[C@H](NC(=O)[C@H](CCCNC(N)=O)NC(=O)[C@H](CCCNC(=N)N)NC1=O)C(=O)N[C@@H](CCCNC(=N)N)C(=O)NCC(=O)N1CCC[C@@H]1C(=O)N[C@@H](CCCNC(=N)N)C(=O)N[C@@H](CCCNC(=N)N)C(=O)N[C@@H](Cc1ccc3ccccc3c1)C(=O)N2
B7: Example 91 (peptide)
peptide: cyclo(MR[Cit]CRG[dP]RR[2Nal]CYQK[dP]P)
modifications: disulfide 4-11
SMILES: CSCC[C@@H]1NC(=O)[C@@H]2CCCN2C(=O)[C@H]2CCCN2C(=O)[C@H](CCCCN)NC(=O)[C@H](CCC(N)=O)NC(=O)[C@H](Cc2ccc(O)cc2)NC(=O)[C@@H]2CSSC[C@H](NC(=O)[C@H](CCCNC(N)=O)NC(=O)[C@H](CCCNC(=N)N)NC1=O)C(=O)N[C@@H](CCCNC(=N)N)C(=O)NCC(=O)N1CCC[C@@H]1C(=O)N[C@@H](CCCNC(=N)N)C(=O)N[C@@H](CCCNC(=N)N)C(=O)N[C@@H](Cc1ccc3ccccc3c1)C(=O)N2
B8: Example 92 (peptide)
peptide: cyclo(YRNCRG[dP]RR[2Nal]CYQK[dP]P)
modifications: disulfide 4-11
SMILES: N=C(N)NCCC[C@@H]1NC(=O)[C@@H]2CSSC[C@H](NC(=O)[C@H](Cc3ccc4ccccc4c3)NC(=O)[C@H](CCCNC(=N)N)NC(=O)[C@H](CCCNC(=N)N)NC(=O)[C@H]3CCCN3C(=O)CNC1=O)C(=O)N[C@@H](Cc1ccc(O)cc1)C(=O)N[C@@H](CCC(N)=O)C(=O)N[C@@H](CCCCN)C(=O)N1CCC[C@@H]1C(=O)N1CCC[C@H]1C(=O)N[C@@H](Cc1ccc(O)cc1)C(=O)N[C@@H](CCCNC(=N)N)C(=O)N[C@@H](CC(N)=O)C(=O)N2
B9: Example 93 (peptide)
peptide: cyclo(YRDCRG[dP]RR[2Nal]CYQK[dP]P)
modifications: disulfide 4-11
SMILES: N=C(N)NCCC[C@@H]1NC(=O)[C@@H]2CSSC[C@H](NC(=O)[C@H](Cc3ccc4ccccc4c3)NC(=O)[C@H](CCCNC(=N)N)NC(=O)[C@H](CCCNC(=N)N)NC(=O)[C@H]3CCCN3C(=O)CNC1=O)C(=O)N[C@@H](Cc1ccc(O)cc1)C(=O)N[C@@H](CCC(N)=O)C(=O)N[C@@H](CCCCN)C(=O)N1CCC[C@@H]1C(=O)N1CCC[C@H]1C(=O)N[C@@H](Cc1ccc(O)cc1)C(=O)N[C@@H](CCCNC(=N)N)C(=O)N[C@@H](CC(=O)O)C(=O)N2
B10: Example 94 (peptide)
peptide: cyclo(YRKCRG[dP]RR[2Nal]CYQK[dP]P)
modifications: disulfide 4-11
SMILES: N=C(N)NCCC[C@@H]1NC(=O)[C@@H]2CSSC[C@H](NC(=O)[C@H](Cc3ccc4ccccc4c3)NC(=O)[C@H](CCCNC(=N)N)NC(=O)[C@H](CCCNC(=N)N)NC(=O)[C@H]3CCCN3C(=O)CNC1=O)C(=O)N[C@@H](Cc1ccc(O)cc1)C(=O)N[C@@H](CCC(N)=O)C(=O)N[C@@H](CCCCN)C(=O)N1CCC[C@@H]1C(=O)N1CCC[C@H]1C(=O)N[C@@H](Cc1ccc(O)cc1)C(=O)N[C@@H](CCCNC(=N)N)C(=O)N[C@@H](CCCCN)C(=O)N2
B11: Example 20 (peptide)
peptide: cyclo(YR[Cit]FR[Cit]PRR[2Nal]VY[Cit]K[dP]P)
SMILES: CC(C)[C@@H]1NC(=O)[C@H](Cc2ccc3ccccc3c2)NC(=O)[C@H](CCCNC(=N)N)NC(=O)[C@H](CCCNC(=N)N)NC(=O)[C@@H]2CCCN2C(=O)[C@H](CCCNC(N)=O)NC(=O)[C@H](CCCNC(=N)N)NC(=O)[C@H](Cc2ccccc2)NC(=O)[C@H](CCCNC(N)=O)NC(=O)[C@H](CCCNC(=N)N)NC(=O)[C@H](Cc2ccc(O)cc2)NC(=O)[C@@H]2CCCN2C(=O)[C@H]2CCCN2C(=O)[C@H](CCCCN)NC(=O)[C@H](CCCNC(N)=O)NC(=O)[C@H](Cc2ccc(O)cc2)NC1=O
B12: Example 95 (peptide)
peptide: cyclo(YRACRG[dP]RR[2Nal]CYQK[dP]P)
modifications: disulfide 4-11
SMILES: C[C@@H]1NC(=O)[C@H](CCCNC(=N)N)NC(=O)[C@H](Cc2ccc(O)cc2)NC(=O)[C@@H]2CCCN2C(=O)[C@H]2CCCN2C(=O)[C@H](CCCCN)NC(=O)[C@H](CCC(N)=O)NC(=O)[C@H](Cc2ccc(O)cc2)NC(=O)[C@@H]2CSSC[C@H](NC1=O)C(=O)N[C@@H](CCCNC(=N)N)C(=O)NCC(=O)N1CCC[C@@H]1C(=O)N[C@@H](CCCNC(=N)N)C(=O)N[C@@H](CCCNC(=N)N)C(=O)N[C@@H](Cc1ccc3ccccc3c1)C(=O)N2
B13: Example 96 (peptide)
peptide: cyclo(YRSCRG[dP]RR[2Nal]CYQK[dP]P)
modifications: disulfide 4-11
SMILES: N=C(N)NCCC[C@@H]1NC(=O)[C@@H]2CSSC[C@H](NC(=O)[C@H](Cc3ccc4ccccc4c3)NC(=O)[C@H](CCCNC(=N)N)NC(=O)[C@H](CCCNC(=N)N)NC(=O)[C@H]3CCCN3C(=O)CNC1=O)C(=O)N[C@@H](Cc1ccc(O)cc1)C(=O)N[C@@H](CCC(N)=O)C(=O)N[C@@H](CCCCN)C(=O)N1CCC[C@@H]1C(=O)N1CCC[C@H]1C(=O)N[C@@H](Cc1ccc(O)cc1)C(=O)N[C@@H](CCCNC(=N)N)C(=O)N[C@@H](CO)C(=O)N2
B14: Example 97 (peptide)
peptide: cyclo(YRLCRG[dP]RR[2Nal]CYQK[dP]P)
modifications: disulfide 4-11
SMILES: CC(C)C[C@@H]1NC(=O)[C@H](CCCNC(=N)N)NC(=O)[C@H](Cc2ccc(O)cc2)NC(=O)[C@@H]2CCCN2C(=O)[C@H]2CCCN2C(=O)[C@H](CCCCN)NC(=O)[C@H](CCC(N)=O)NC(=O)[C@H](Cc2ccc(O)cc2)NC(=O)[C@@H]2CSSC[C@H](NC1=O)C(=O)N[C@@H](CCCNC(=N)N)C(=O)NCC(=O)N1CCC[C@@H]1C(=O)N[C@@H](CCCNC(=N)N)C(=O)N[C@@H](CCCNC(=N)N)C(=O)N[C@@H](Cc1ccc3ccccc3c1)C(=O)N2

Molecular target: human CXCR4 (human, UniProt P61073 1-352)
Sequence (P61073 whole entry): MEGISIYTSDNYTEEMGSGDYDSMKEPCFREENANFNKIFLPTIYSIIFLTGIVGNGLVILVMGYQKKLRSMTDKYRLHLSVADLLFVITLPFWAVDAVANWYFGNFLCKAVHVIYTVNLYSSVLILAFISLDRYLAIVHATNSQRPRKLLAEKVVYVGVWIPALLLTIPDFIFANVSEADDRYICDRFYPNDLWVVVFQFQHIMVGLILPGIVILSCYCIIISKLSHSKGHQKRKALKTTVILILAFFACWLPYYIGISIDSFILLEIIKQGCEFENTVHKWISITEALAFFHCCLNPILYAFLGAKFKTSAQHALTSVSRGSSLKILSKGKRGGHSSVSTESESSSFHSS
Test: cell-based or functional assay

First: B1
Second: B2
The “IC50 (nM) Ca2+ assay (method 2)” value of the first is 3.9-fold higher: 2.7 nM for the first, 0.69 nM for the second.

B3 and B4 are within 1.5-fold of each other in “IC50 (nM) Ca2+ assay (method 2)” value: 3.5 nM for the first, 2.5 nM for the second.

Compared with B5, B6 is 39-fold higher in “IC50 (nM) Ca2+ assay (method 2)” value: 0.5 nM for the first, 19.5 nM for the second.

Compared with B7, B8 is 1.9-fold lower in “IC50 (nM) Ca2+ assay (method 2)” value: 2.1 nM for the first, 1.1 nM for the second.

Going from B9 to B10, the “IC50 (nM) Ca2+ assay (method 2)” value falls from 4.3 nM to 2.5 nM (1.7-fold).

B12 and B13 are within 1.5-fold of each other in “IC50 (nM) Ca2+ assay (method 2)” value: 2.9 nM for the first, 3 nM for the second.

For B14, the “IC50 (nM) Ca2+ assay (method 2)” value was 4.3 nM.

With B11 the “IC50 (nM) Ca2+ assay (method 1)” value was 3730 nM.
